To fix the notation:
B1: anti-LAIR-1 antibody ch57D12 (antibody, V domains shown)
VH: QVQLQQSGAELARPGASVNLSCRASGYSFTSFGISWVKQRTGQGLEWIGEIYPRSDNTFYNEKFKGKATLTADKSSSTAYMELRSLTSEDSAVYFCARHFGSSSFDYWGQGTTLTVSS
VL: ENVLTQSPPIMAASLGQKVTMTCSASSSVSSIYFHWYQQKSGTSPKPLIHRASNLASGVPARFSGSGSGTSYSLTISSVEAEDDATYYCQQWSGYPLTFGGGTKLEIK
B2: anti-LAIR-1 antibody ch47H1 (antibody, V domains shown)
VH: EVQLVETGGGLVQPKGSLKLSCAASGFTFNINAMNWVRQAPGKGLEWVARIRTKNNNYATFYADSVKDRFTISRDDSQSMLYLQMNNLKTDDTAMYYCVRDRAGFFAYWGQGTPVTVSA
VL: DIQMTQSPASQSASLGESVTITCLASQTIGTWLGWYRQKPGKSPQLLIYAATSLADGVPSRFSGSGSGTKFSFKISSLQAEDFVIYYCQQLYSTPLTFGSGTKLEIK
B3: anti-LAIR-1 antibody ch62G10 (antibody, V domains shown)
VH: EVQLVETGGGLVQPKGSLKLSCATSGFTFNINAMNWVRQAPGKGLEWVARIRTKNNNFATYYADSVKDRFTISRDDSQSMLYLQMNNLKTEDTAMYYCVRGPYFDYWGQGTTLTVSS
VL: DIQMTQSPASQSASLGESVTITCLASQTIGTWLAWYQQKPGKSPQLLIYAATSLADGVPSRFSGSGSGTKFSFKISNLQAEDFVTYYCQQLYSTPYTFGGGTKLEIK
B4: humanized anti-LAIR-1 antibody Hz47H1.v4 (antibody, human IgG1, kappa, N297G, V domains shown)
VH: EVQLVESGGGLVQPGGSLRLSCAASGFTFNINAMNWVRQAPGKGLEWVARIRTKNYNYATFYADSVKDRFTISRDDSKNSLYLQMNSLKTEDTAVYYCVRDRAGFFAYWGQGTTVTVSS
VL: DIQMTQSPSSLSASVGDRVTITCLASQTIGTWLGWYQQKPGKAPKLLIYAATSLAEGVPSRFSGSGSGTDFTLTISSLQPEDFATYYCQQLYSTPLTFGGGTKVEIKR
B5: humanized anti-LAIR-1 antibody Hz62G10.v1 (antibody, human IgG1, kappa, N297G, V domains shown)
VH: EVQLVESGGGLVKPGGSLRLSCAASGFTFNINAMNWVRQAPGKGLEWVARIRTKNNNFATYYADSVKDRFTISRDDSKNTLYLQMNSLKTEDTAVYYCVRGPYFDYWGQGTLVTVSS
VL: DIQMTQSPSSLSASVGDRVTITCLASQTIGTWLAWYQQKPGKAPKLLIYAATSLADGVPSRFSGSGSGTDFTLTISSLQPEDFATYYCQQLYSTPYTFGGGTKVEIKR

This assay deals with cyno LAIR-1-Fc (cynomolgus monkey). The assay is described as follows: ELISA blocking: plate coated with 5 µg/mL human collagen type 1, antibody titrated, 1 µg/mL biotinylated cyno LAIR-1-Fc, streptavidin-HRP, OD650. For orientation: ELISA stands for enzyme-linked immunosorbent assay.
Sequence of cyno LAIR-1-Fc (cynomolgus monkey) (chain, as listed by the source limits assumed, form in doubt): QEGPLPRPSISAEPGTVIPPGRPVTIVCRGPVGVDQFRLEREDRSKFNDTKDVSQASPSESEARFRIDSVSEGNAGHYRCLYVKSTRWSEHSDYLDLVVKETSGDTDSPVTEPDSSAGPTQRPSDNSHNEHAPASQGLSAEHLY
As to B1, the IC50 (read off the curve) was determined as 6 nM.
In turn, B2 registered an IC50 (read off the curve) of 3 nM.
In the case of B3, the IC50 (read off the curve) was 3 nM.
The molecule B4 displayed an IC50 (read off the curve) of 3 nM.
B5 had an IC50 (read off the curve) of 3 nM.

The values are drawn from patent US20220041711A1.
